Experimental findings from article PMC4176372, “The interplay of primer-template DNA phosphorylation status and single-stranded DNA binding proteins in directing clamp loaders to the appropriate polarity of DNA” (Nucleic Acids Research, 2014) are described below.

The target in test [1] is replication protein A (RPA) (UniProt P22336).
Test [2] shares this target. The source holds these as a separate data set.
The target of test [3] is T1, Saccharomyces cerevisiae clamp loader replication factor C (RFC) with a full-length Rfc1 subunit (S. cerevisiae, UniProt P38630 1-861; P40348 1-353; P38629 1-340; P40339 1-323; P38251 1-354).
T1 construct: Rfc1 subunit of S. cerevisiae RFC; Rfc2 subunit of S. cerevisiae RFC; Rfc3 subunit of S. cerevisiae RFC; Rfc4 subunit of S. cerevisiae RFC; Rfc5 subunit of S. cerevisiae RFC; Pentamer of Rfc1-5; source: E. coli BL21 (DE3) Rosetta, expressed from a single plasmid, purified (HighTrap SP, HighTrap heparin, MonoQ); copies: 1 + 1 + 1 + 1 + 1
Nature of the test: stopped-flow fluorescence (PCNA-AF488_2 clamp closing); sequential mixing: 20 nM RFC, 20 nM PCNA-AF488_2 and 0.5 mM ATP incubated 4 s, then mixed with 40 nM 5′DNA pre-bound to 400 nM RPA, ATP and 200 nM unlabeled PCNA; 20°C; 30 mM HEPES pH 7.5, 150 mM NaCl, 10 mM MgCl2, 10% glycerol, 100 mM maltose. The following applies: both partners purified.

Test [4] addresses T1, Saccharomyces cerevisiae clamp loader …. As to the kind of experiment: stopped-flow fluorescence (PCNA-MDCC release from RFC); PCNA labeled with MDCC on the surface to which RFC binds; fluorescence of the RFC·PCNA-MDCC complex is greater than that of unbound PCNA-MDCC; release followed after mixing with DNA substrates with and without bound SSB/RPA; 20°C; single exponential fit. The following applies: both partners purified.

Sequence of replication protein A (RPA) (P22336 whole entry, chain 1 of 3): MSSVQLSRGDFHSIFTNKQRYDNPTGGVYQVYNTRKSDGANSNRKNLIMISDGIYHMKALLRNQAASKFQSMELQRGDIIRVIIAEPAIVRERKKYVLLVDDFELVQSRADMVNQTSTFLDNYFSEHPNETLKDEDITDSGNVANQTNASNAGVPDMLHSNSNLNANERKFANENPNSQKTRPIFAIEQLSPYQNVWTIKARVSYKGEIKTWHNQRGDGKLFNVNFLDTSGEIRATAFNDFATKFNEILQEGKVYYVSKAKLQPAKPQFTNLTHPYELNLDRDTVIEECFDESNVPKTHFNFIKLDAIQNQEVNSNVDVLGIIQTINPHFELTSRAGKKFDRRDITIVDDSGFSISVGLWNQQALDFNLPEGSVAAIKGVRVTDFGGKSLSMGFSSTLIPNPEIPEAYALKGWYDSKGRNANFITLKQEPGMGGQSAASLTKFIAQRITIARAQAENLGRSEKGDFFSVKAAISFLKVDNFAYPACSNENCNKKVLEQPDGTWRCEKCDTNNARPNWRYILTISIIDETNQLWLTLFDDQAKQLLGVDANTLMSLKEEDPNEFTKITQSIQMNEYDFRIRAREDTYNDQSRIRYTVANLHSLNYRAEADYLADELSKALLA
Sequence of replication protein A (RPA) (P26754 whole entry, chain 2 of 3, further chain): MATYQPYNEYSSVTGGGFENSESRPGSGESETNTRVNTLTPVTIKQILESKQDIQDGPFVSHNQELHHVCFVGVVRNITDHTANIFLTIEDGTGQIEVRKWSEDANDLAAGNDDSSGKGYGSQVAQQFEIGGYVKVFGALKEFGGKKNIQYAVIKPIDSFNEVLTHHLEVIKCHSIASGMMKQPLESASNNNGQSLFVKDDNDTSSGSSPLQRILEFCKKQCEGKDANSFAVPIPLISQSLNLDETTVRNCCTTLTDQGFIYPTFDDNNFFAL
Sequence of replication protein A (RPA) (P26755 whole entry, chain 3 of 3, further chain): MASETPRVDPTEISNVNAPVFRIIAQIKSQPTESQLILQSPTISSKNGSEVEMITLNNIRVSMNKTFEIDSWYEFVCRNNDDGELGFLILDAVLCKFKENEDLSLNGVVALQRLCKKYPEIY

For “Saccharomyces cerevisiae clamp loader replication factor C (RFC) with a full-length Rfc1 subunit (from UniProt P38630 1-861; P40348 1-353; P38629 1-340; P40339 1-323; P38251 1-354) (complex)”, in test [1], the k obs1 of PCNA-AF488 2 closing by RFC on 3′DNA·RPA is 4.4 s⁻¹ and the kobs of PCNA-AF488 2 closing by RFC on phosphorylated 5′DNA·RPA was determined as 0.09 s⁻¹. In test [2], the k obs1 of PCNA closing by RFC on 3′DNA with the non-cognate SSB substituted for RPA came to 4.6 s⁻¹ and the rate of PCNA closing by RFC on 5′DNA with the non-cognate SSB substituted for RPA was found to be 0.45 s⁻¹.

B1: PCNA-AF488_(2) (S. cerevisiae PCNA, C22/62/81S, I111C, I181C, labeled with AF488) (natural protein, UniProt P15873 1-258, looked up)
chain: MLEAKFEEASLFKRIIDGFKDSVQLVNFQCKEDGIIAQAVDDSRVLLVSLEIGVEAFQEYRSDHPVTLGMDLTSLSKILRSGNNTDTLTLIADNTPDSIILLFEDTKKDRCAEYSLKLMDIDADFLKIEELQYDSTLSLPSSEFSKIVRDLSQLSDSINIMITKETIKFVADGDIGSGSVCIKPFVDMEHPETSIKLEMDQPVDLTFGAKYLLDIIKGSSLSDRVGIRLSSEAPALFQFDLKSGFLQFFLAPKFNDEE
modifications: AF488 on the cysteines introduced at positions 111 and 181
notes: proliferating cell nuclear antigen (PCNA), the S. cerevisiae sliding clamp; also called fluorescent PCNA; source: purified as described previously
Consider B1, for which, in test [3], the binding result is reported as “binds”.

B2: PCNA-MDCC (S. cerevisiae PCNA, C22/62/81S, S43C, labeled with MDCC) (natural protein, UniProt P15873 1-258, looked up)
chain: MLEAKFEEASLFKRIIDGFKDSVQLVNFQCKEDGIIAQAVDDCRVLLVSLEIGVEAFQEYRSDHPVTLGMDLTSLSKILRSGNNTDTLTLIADNTPDSIILLFEDTKKDRIAEYSLKLMDIDADFLKIEELQYDSTLSLPSSEFSKIVRDLSQLSDSINIMITKETIKFVADGDIGSGSVIIKPFVDMEHPETSIKLEMDQPVDLTFGAKYLLDIIKGSSLSDRVGIRLSSEAPALFQFDLKSGFLQFFLAPKFNDEE
modifications: MDCC on the cysteine introduced at position 43
notes: proliferating cell nuclear antigen (PCNA), the S. cerevisiae sliding clamp; source: purified as described previously
Regarding B2, in test [4], the binding result was “binds”.
